Experimental data: patent publication US9403908B2, “Method for altering hematopoietic progenitor cell adhesion, differentiation, and migration” (The Regents of the University of California, priority 2003, dated 2016)

Legend:
[1] = system: bFGF or VEGF induced angiogenesis in Matrigel; experiment: Murine Matrigel angiogenesis assay (bFGF or VEGF); assay type: in vivo, mouse; conditions: peptide antagonist; 50 μM in bFGF matrigel, nude mice (FIG. 19G)
Method: (B, C) Adhesion of endothelial cells to plastic plates coated with 5 μg/ml CS-1 fibronectin, in the presence of medium, anti-α4β1 (HP1/2) or control antibodies (P1F6). (D) Cryosections from bFGF stimulated, saline or antibody-treated CAMs were immunostained to detect blood vessel expression of von Willebrand Factor. (E) Angiogenesis was initiated in FVB/N mice by corneal transplantation of polymerized pellets containing 400 ng/ml of VEGF. Animals (n=5) were treated on day 0 and day 3 with anti-α4β1 (PS/2) or control IgG (cIgG). Fifteen minutes prior to sacrifice on day 5, mice were injected intravenously with endothelial specific lectin, Bandeira simplifolia-FITC and tissues were cryopreserved. Angiogenic response to VEGF was quantified as the percent green fluorescent area visible under high power magnification (100×). […] Matrigel plugs were homogenized in RIPA buffer and fluorescence intensity determined.
[…] Microvessel density was quantified in 10 randomly selected 200× microscopic fields for each plug in each treatment group (n=8). […] Angiogenic response to VEGF was quantified as the percent green fluorescent area visible at 100× magnification. […] Tumor dimensions were determined every other day and tumor mass was determined after four weeks of treatment. […] Statistical significance was determined using Student's t-test.

[2] = system: human CD34+ stem cells; experiment: CD34+ stem cell adhesion to HUVEC monolayers; assay type: cell-based; conditions: 60 minutes, 25 μg/ml HP2/1 or P1F6 (FIG. 34d-e)
Method: Adhesion assays were performed on plastic 48 well plates coated with 5 μg/ml of recombinant H120 CS-1 fibronectin (from Martin J. Humphries, University of Birmingham, UK) as described (Kim et al. (2000) Am. J. Pathol. 156, 1345-1362). Stem cells were incubated on coated plates for 30 minutes in the presence of 25 μg/ml anti-α4β1_(HP2/1) or anti-αvβ5 (P1F6, from Dr. David Cheresh, the Scripps Research Institute). CMTMR labeled stem cells were incubated in HEPES buffered serum free culture medium in the presence of 25 μg/ml HP2/1 or P1F6 on HUVEC monolayers for 60 minutes at 37° C. Unbound cells were removed by washing gently with PBS. Cells were fixed in 3.7% parafomaldeyde. Representative fields were photographed at 200× and the number of cells adhering per field was quantified in five representative fields per treatment condition.

[3] = system: endothelial progenitor cells (EPCs); experiment: Adhesion of DiI-labeled EPCs to endothelial (HUVEC) monolayers; assay type: cell-based, human; conditions: DiI-labeled EPCs on proliferating HUVEC monolayers; FIG. 17D
Method: (A-B) Adhesion of purified EPCs on plastic plates coated with (A) 5 μg/ml CS-1 fibronectin or (B) recombinant soluble VCAM in the presence of medium, anti-α4β1 (HP1/2) or control antibodies (P1F6). (C) Adhesion of DiI-labeled purified EPCs to HUVEC monolayers VCAM in the presence of medium, anti-α4β1 (HP1/2) or control antibodies (P1F6). Cells were quantified by counting adherent red fluorescent cells per 200× microscopic field. (D) Adhesion of DiI-labeled purified EPCs to HUVEC monolayers in the presence of medium, rsVCAM or control protein. Statistical significance was determined using Student's t-test.
To determine whether EPCs can attach to proliferating vascular endothelium that has been stimulated by angiogenic growth factors, we plated EPCs labeled with DiI-acetylated LDL onto proliferating endothelial monolayers. EPCs bound strongly to endothelium in a α4β1 dependent manner (FIG. 17C) and that rsVCAM blocked EPC attachment to endothelial monolayers (FIG. 17D). […] Thus, α4β1 mediates the attachment of EPCs to VCAM on vascular endothelium. […]

Molecule: EILDV
- neovascularization in Matrigel model [1]: blocked

B1: rsVCAM: recombinant soluble VCAM, a competitive inhibitor of integrin α4β1 function (protein)
chain: FKIETTPESRYLAQIGDSVSLTCSTTGCESPFFSWRTQIDSPLNGKVTNEGTTSTLTMNPVSFGNEHSYLCTATCESRKLEKGIQVEIYSFPKDPEIHLSGPLEAGKPITVKCSVADVYPFDRLEIDLLKGDHLMKSQEFLEDADRKSLETKSLEVTFTPVIEDIGKVLVCRAKLHIDEMDSVPTVRQAVKELQVYISPKNTVISVNPSTKLQEGGSVTMTCSSEGLPAPEIFWSKKLDNGNLQHLSGNATLTLIAMRMEDSGIYVCEGVNLIGKNRKEVELIVQEKPFTVEISPGPRIAAQIGDSVMLTCSVMGCESPSFSWRTQIDSPLSGKVRSEGTNSTLTLSPVSFENEHSYLCTVTCGHKKLEKGIQVELYSFPRDPEIEMSGGLVNGSSVTVSCKVPSVYPLDRLEIELLKGETILENIEFLEDTDMKSLENKSLEMTFIPTIEDTGKALVCQAKLHIDDMEFEPKQRQSTQTLYVNVAPRDTTVLVSPSSILEEGSSVNMTCLSQGFPAPKILWSRQLPNGELQPLSENATLTLISTKMEDSGVYLCEGINQAGRSRKEVELIIQVTPKDIKLTAFPSESVKEGDTVIISCTCGNVPETWIILKKKAETGDTVLKSIDGAYTIRKAQLKDAGVYECESKNKVGSQLRSLTLDVQGRENNKDYFSPE
- stem cell adhesion to endothelial cell (EC) monolayers [2]: blocked
- EPC attachment to endothelial monolayers [3]: blocked
